This passage reports IC50 results from paper PMC5039417 (2016).

Broadly, the IC50 is the concentration at which inhibition is half-maximal.

In this experiment the target is HLA-A*0201 molecules on T2 cells (MHC class I/β2-microglobulin complex) (human (endogenous in T2) | ). Put plainly: FACS; competition with F1-peptide on T2 cells. (In general: A flow cytometer gives signals particle by particle.)

In turn, SLSYTNPAV [P7:SLSYTNPAV, MUC1 cytoplasmic tail peptide] displayed an IC50 of 0.419 µg/mL.
